Target: T1, anti-CD28 scFv (VH-linker 1-VL) (biotinylated (site not stated))
T1 construct: Captured as biotinylated scFv on neutravidin coated plates in the phage ELISA
Experiment: phage ELISA; biotinylated scFv on neutravidin plate; anti-M13-HRP;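 also: crude clonal phage supernatant added to wells pre-incubated with soluble CD28 protein or only blocking buffer, then washed, bound phage read out with an HRP-linked anti-M13 antibody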

T1 sequence (scFv, as listed by the source): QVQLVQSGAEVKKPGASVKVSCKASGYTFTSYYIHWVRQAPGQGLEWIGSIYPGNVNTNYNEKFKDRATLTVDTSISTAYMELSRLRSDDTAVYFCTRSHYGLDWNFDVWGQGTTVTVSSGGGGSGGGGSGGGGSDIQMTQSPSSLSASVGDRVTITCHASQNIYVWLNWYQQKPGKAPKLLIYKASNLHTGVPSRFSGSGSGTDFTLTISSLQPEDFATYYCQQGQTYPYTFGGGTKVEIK

Binder | CD28 scFv signal
MDWCPRHMWHECFA (on phage (pIII fusion)) [Phage-263 clonal phage peptide] | 2.52
MDWCPRDLWYVCFA (on phage (pIII fusion)) [Phage-321 clonal phage peptide] | 2.22
MTLCLSVDLVHCWY (on phage (pIII fusion)) [Phage-267 clonal phage peptide] | 0.632
MDWCPRDLWSVCFS (on phage (pIII fusion)) [Phage-290 clonal phage peptide] | 2.5
MDWCPRDLWFACFA (on phage (pIII fusion)) [Phage-282 clonal phage peptide] | 2.66
MDWCPRDHWVDCYS (on phage (pIII fusion)) [Phage-275 clonal phage peptide] | 0.671
MDWCPRHLWHECFT (on phage (pIII fusion)) [Phage-317 clonal phage peptide] | 2.3
MDWCPRALWDHCFF (on phage (pIII fusion)) [Phage-292 clonal phage peptide] | 2.49
DSFCTWSAWQECGR (on phage (pIII fusion)) [Phage-269 clonal phage peptide] | 0.13
MDWCPKFLWDECFA (on phage (pIII fusion)) [Phage-304 clonal phage peptide] | 2.41
WVSCLRHHWLECFH (on phage (pIII fusion)) [Phage-274 clonal phage peptide] | 0.723
MDWCPRSLWFLCFN (on phage (pIII fusion)) [Phage-281 clonal phage peptide] | 2.71
MDWCPRDLWYQCFN (on phage (pIII fusion)) [Phage-311 clonal phage peptide] | 2.35
MERCPRYLWHMCYS (on phage (pIII fusion)) [Phage-286 clonal phage peptide] | 2.59
MDWCPMFMWHECFN (on phage (pIII fusion)) [Phage-261 clonal phage peptide] | 2.23
MDWCPMFLWDECFN (on phage (pIII fusion)) [Phage-318 clonal phage peptide] | 2.29
MDWCPTSFWNRCFH (on phage (pIII fusion)) [Phage-271 clonal phage peptide] | 0.087
VTSCPTTMWNRCFS (on phage (pIII fusion)) [Phage-266 clonal phage peptide] | 1.22
IDWCPKIHWDLCYF (on phage (pIII fusion)) [Phage-276 clonal phage peptide] | 0.295
MDWCPRYLWPVCFH (on phage (pIII fusion)) [Phage-307 clonal phage peptide] | 2.39

Binder | CD28 scFv signal
MVWCMSVGWAVCLN (on phage (pIII fusion)) [Phage-272 clonal phage peptide] | 0.271
MDWCPIALWDFCFA (on phage (pIII fusion)) [Phage-288 clonal phage peptide] | 2.52
MYWCATSMWNRCFV (on phage (pIII fusion)) [Phage-262 clonal phage peptide] | 0.398
MDWCPRDLWAMCFA (on phage (pIII fusion)) [Phage-285 clonal phage peptide] | 2.63
MDWCPKSLWAECFN (on phage (pIII fusion)) [Phage-308 clonal phage peptide] | 2.38
MSWCPRDLWHLCFF (on phage (pIII fusion)) [Phage-319 clonal phage peptide] | 2.27
MDWCPRDFWAFCFF (on phage (pIII fusion)) [Phage-270 clonal phage peptide] | 2.37
MDWCPVFMWNECFN (on phage (pIII fusion)) [Phage-260 clonal phage peptide] | 2.66
MDWCPRDLWDECFN (on phage (pIII fusion)) [Phage-310 clonal phage peptide] | 2.37
MDWCPTYLWHVCFS (on phage (pIII fusion)) [Phage-315 clonal phage peptide] | 2.32
MDWCPTYLWNECFN (on phage (pIII fusion)) [Phage-320 clonal phage peptide] | 2.24
MDWCPRSHWSECFS (on phage (pIII fusion)) [Phage-277 clonal phage peptide] | 0.253
MDWCPRYLWAECFN (on phage (pIII fusion)) [Phage-279 clonal phage peptide] | 2.74
MDWCPIYLWAECFN (on phage (pIII fusion)) [Phage-299 clonal phage peptide] | 2.45
MDWCPRSLWDYCFA (on phage (pIII fusion)) [Phage-294 clonal phage peptide] | 2.49
MDWCPRSLWNYCFN (on phage (pIII fusion)) [Phage-313 clonal phage peptide] | 2.35
MDWCPRSLWNYCFA (on phage (pIII fusion)) [Phage-316 clonal phage peptide] | 2.32
MDWCPRYLWDYCFA (on phage (pIII fusion)) [Phage-280 clonal phage peptide] | 2.71
MDWCPRNLWHACFN (on phage (pIII fusion)) [Phage-259 clonal phage peptide] | 1.57

Target: T1, anti-CD28 scFv (VH-linker 1-VL)
Experiment: phage ELISA; scFv wells pre-incubated with soluble CD28 (competitor);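 also: crude clonal phage supernatants added to wells pretreated with soluble CD28 in blocking buffer, bound phage read via HRP-linked anti-M13 antibody, reference wells got blocking buffer only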

Binder | CD28 scFv signal in presence of CD28
MDWCPRHMWHECFA (on phage (pIII fusion)) [Phage-263 clonal phage peptide] | 0.298
MDWCPRDLWYVCFA (on phage (pIII fusion)) [Phage-321 clonal phage peptide] | 0.138
MTLCLSVDLVHCWY (on phage (pIII fusion)) [Phage-267 clonal phage peptide] | 0.093
MDWCPRDLWSVCFS (on phage (pIII fusion)) [Phage-290 clonal phage peptide] | 0.116
MDWCPRDLWFACFA (on phage (pIII fusion)) [Phage-282 clonal phage peptide] | 0.794
MDWCPRDHWVDCYS (on phage (pIII fusion)) [Phage-275 clonal phage peptide] | 0.092
MDWCPRHLWHECFT (on phage (pIII fusion)) [Phage-317 clonal phage peptide] | 0.32
MDWCPRALWDHCFF (on phage (pIII fusion)) [Phage-292 clonal phage peptide] | 0.394
DSFCTWSAWQECGR (on phage (pIII fusion)) [Phage-269 clonal phage peptide] | 0.101
MDWCPKFLWDECFA (on phage (pIII fusion)) [Phage-304 clonal phage peptide] | 0.376
WVSCLRHHWLECFH (on phage (pIII fusion)) [Phage-274 clonal phage peptide] | 0.858
MDWCPRSLWFLCFN (on phage (pIII fusion)) [Phage-281 clonal phage peptide] | 1.77
MDWCPRDLWYQCFN (on phage (pIII fusion)) [Phage-311 clonal phage peptide] | 0.609
MERCPRYLWHMCYS (on phage (pIII fusion)) [Phage-286 clonal phage peptide] | 0.84
MDWCPMFMWHECFN (on phage (pIII fusion)) [Phage-261 clonal phage peptide] | 1.04
MDWCPMFLWDECFN (on phage (pIII fusion)) [Phage-318 clonal phage peptide] | 0.203
MDWCPTSFWNRCFH (on phage (pIII fusion)) [Phage-271 clonal phage peptide] | 0.092
VTSCPTTMWNRCFS (on phage (pIII fusion)) [Phage-266 clonal phage peptide] | 0.546
IDWCPKIHWDLCYF (on phage (pIII fusion)) [Phage-276 clonal phage peptide] | 0.082
MDWCPRYLWPVCFH (on phage (pIII fusion)) [Phage-307 clonal phage peptide] | 0.602

Binder | CD28 scFv signal in presence of CD28
MVWCMSVGWAVCLN (on phage (pIII fusion)) [Phage-272 clonal phage peptide] | 0.284
MDWCPIALWDFCFA (on phage (pIII fusion)) [Phage-288 clonal phage peptide] | 0.492
MYWCATSMWNRCFV (on phage (pIII fusion)) [Phage-262 clonal phage peptide] | 0.415
MDWCPRDLWAMCFA (on phage (pIII fusion)) [Phage-285 clonal phage peptide] | 0.889
MDWCPKSLWAECFN (on phage (pIII fusion)) [Phage-308 clonal phage peptide] | 0.162
MSWCPRDLWHLCFF (on phage (pIII fusion)) [Phage-319 clonal phage peptide] | 0.319
MDWCPRDFWAFCFF (on phage (pIII fusion)) [Phage-270 clonal phage peptide] | 0.655
MDWCPVFMWNECFN (on phage (pIII fusion)) [Phage-260 clonal phage peptide] | 0.356
MDWCPRDLWDECFN (on phage (pIII fusion)) [Phage-310 clonal phage peptide] | 0.248
MDWCPTYLWHVCFS (on phage (pIII fusion)) [Phage-315 clonal phage peptide] | 0.16
MDWCPTYLWNECFN (on phage (pIII fusion)) [Phage-320 clonal phage peptide] | 0.606
MDWCPRSHWSECFS (on phage (pIII fusion)) [Phage-277 clonal phage peptide] | 0.087
MDWCPRYLWAECFN (on phage (pIII fusion)) [Phage-279 clonal phage peptide] | 1.14
MDWCPIYLWAECFN (on phage (pIII fusion)) [Phage-299 clonal phage peptide] | 0.307
MDWCPRSLWDYCFA (on phage (pIII fusion)) [Phage-294 clonal phage peptide] | 0.235
MDWCPRSLWNYCFN (on phage (pIII fusion)) [Phage-313 clonal phage peptide] | 0.209
MDWCPRSLWNYCFA (on phage (pIII fusion)) [Phage-316 clonal phage peptide] | 0.198
MDWCPRYLWDYCFA (on phage (pIII fusion)) [Phage-280 clonal phage peptide] | 0.382
MDWCPRNLWHACFN (on phage (pIII fusion)) [Phage-259 clonal phage peptide] | 0.112

Target: Anti-CD28 scFv (VH-linker 1-VL)
Experiment: phage ELISA: biotinylated anti-CD28 scFv on neutravidin plate, clonal phage supernatant, anti-M13-HRP; wells pre-incubated with soluble CD28 (competitor);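 also: wells pretreated with soluble CD28 protein in blocking buffer before phage addition, no wash in between, reference wells got blocking buffer only, bound phage detected after washing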
Protocol: Clonal phage were harvested as crude supernatants and screened via standard enzyme linked immunosorbent assays (ELISAs). […] Prior to the addition of clonal phage, wells were incubated with blocking buffer and CD28 soluble protein or blocking buffer alone. Without washing or aspirating, clonal phage supernatants were then added to the wells and incubated for a short time. Wells were then washed followed by detection of bound phage using a horse radish peroxidase conjugated anti-M13 antibody.

Chain of Anti-CD28 scFv (VH-linker 1-VL) (scFv, as listed by the source): as above

Binder | Phage binding ELISA CD28 scFv signal in presence of CD28
IHLCHWVPWIKCSH (Clonal phage from the Peptide-9 library) [Phage-430] | 2.51

— patent US20230357447A1 (JANUX THERAPEUTICS, published 2023)
